Experimental data: patent US20030124568A1 (published 2003)
Ends that are not written are not given here.

B1: GIRK1NCprey2 (nucleotides 1011-1349 of SEQ ID NO: 1, fragment of rat Mogli, in pPC86) (other)
chain: ESERRLHERESEIMELKSQLARMREDWIEEECHRVEAQLALKEARKEIKQLKQVIETMRSSLADKDKGIQKYFVDINIQNKKLESLLQSMEMAHNSSLRDELCLDFSFDSPE
notes: Residue range converted from the printed nucleotide range; also called prey plasmid; Mogli fragment
B2: nucleotide region 1011-1193 of SEQ ID NO: 1 (overlap of GIRK1NCprey2 and GIRK1NCprey3) cloned into the plasmid pPC86 (other, not shown: small tags and cut ends)
chain: ESERRLHERESEIMELKSQLARMREDWIEEECHRVEAQLALKEARKEIKQLKQVIETMRS
modifications: also: fused to GAL4 activation domain with pPC86 linker and tail residues
notes: Residue range converted from the printed nucleotide range; also called 1NCprey23o construct
B3: GIRK1NCprey3 (nucleotides 500-1193 of SEQ ID NO: 1, fragment of rat Mogli, in pPC86) (other)
chain: RIGMVGEGNIQSARYKKESKGGIIKPGSEADFSSSSSTGSISAPEVHMSTTGNKRASFSRNRGPHGRSNGAPSHKSGSSPPSPREKDLVSMLCRNPLSPSNIHPSYAPSSPSSSNSGSYKGSDCSPVMRRSGRYMSCGENHGVKPPNPEQYLTPLQQKEVTVRHLRTKLKESERRLHERESEIMELKSQLARMREDWIEEECHRVEAQLALKEARKEIKQLKQVIETMRS
notes: as for B1

Key:
Assay in all cases: yeast two-hybrid cotransformation in Y190
[1] = target: T1, amino terminus of the GIRK1 subunit cloned into the vector pDBLeu (rat, UniProt P04386 1-147; P63251 1-80, limits assumed)
T1 construct: Yeast two-hybrid bait with the GIRK1 N terminus alone; also called N terminus of GIRK1
Source text: (§1) The DNA (accession no.: U09243, EMBL datebase) coding for the carboxyl terminus or the amino terminus of the GIRK1 subunit was amplified by PCR starting from the plasmid “GIRK1NC-bait” using the primers GGIRK1-4s (5′-[…]-3′) and GGIRK1-as (5′-[…]-3′) or GIRK1-NC-s (5′ -[…]-3′) and GIRK1-N-as (5′-[…]-3′) and cloned into the vector pDBLeu. Each of the plasmids was cotransformed with the pPC86 plasmid. GIRK1NCprey2 (SEQ ID NO: 1 nucleotides 1011-1349) or with the plasmid GIRK1NCprey3 (SEQ ID NO: 1, nucleotides 500-1193) into the yeast strain Y190. […] It is evident that the interaction with Mogli takes place only in the presence of both intracellular portions of GIRK1.

[2] = target: T2, carboxyl terminus of the GIRK1 subunit cloned into the vector pDBLeu (rat, UniProt P04386 1-147; P63251 180-501, limits assumed)
T2 construct: Yeast two-hybrid bait with the GIRK1 C terminus alone; also called C terminus of GIRK1
Source text: as §1

[3] = target: T3, GIRK1-NC-bait (GAL4-DNA binding domain fused to the N terminus of the GIRK1 subunit, a linker sequence GSSGSS … (rat, UniProt P04386 1-147; P63251 1-80; P63251 180-501, limits assumed)
T3 construct: Yeast two-hybrid bait in pDBLeu, expressed in yeast strain Y190
Source text: as §1

Binder | binding result [1] | binding result [2] | binding result [3]
B1 | no binding | no binding | 
B2 |  |  | no binding
B3 | no binding | no binding | 
